PMC3804511

Assays:
[1] = target: T1, GST-Kic1(1-359)-His6 (wild type) (S. cerevisiae) (UniProt P38692)
T1 sequence: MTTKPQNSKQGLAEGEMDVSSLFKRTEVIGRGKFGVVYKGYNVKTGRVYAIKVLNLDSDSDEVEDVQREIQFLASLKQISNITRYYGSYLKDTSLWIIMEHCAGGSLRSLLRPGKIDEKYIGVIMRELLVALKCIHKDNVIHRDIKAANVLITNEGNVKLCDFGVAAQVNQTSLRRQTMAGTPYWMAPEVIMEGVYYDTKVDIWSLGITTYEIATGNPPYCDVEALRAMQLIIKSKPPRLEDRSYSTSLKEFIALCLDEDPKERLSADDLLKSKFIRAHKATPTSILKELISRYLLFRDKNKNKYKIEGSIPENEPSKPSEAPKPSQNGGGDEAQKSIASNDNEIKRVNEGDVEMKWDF

[2] = target: T1, GST-Kic1(1-359)-His6 (wild type) (S. cerevisiae); remark: listed apart in the source

Kic1 kinase activity (reaction rate over 15 min on GST-Cbk1(673-756)-His6) with Hym1 relative to without Hym1 [1]: > 5 fold
half maximal activation (Kact) of Kic1 kinase activity (32P transferred to GST-Cbk1(673-756)-His6); Hym1 in 2-fold serial dilutions from 13 µM, Kic1 constant at 0.5 µM [2]: 2 µM
B1: Hym1-His6 (full length, GST cleaved) (natural protein)
chain: MFKKYKNQDLDMAFWWKKNPKTPSDYARLIIEQLNKFSSPSLTQDNKRKVQEECTKYLIGTKHFIVGDTDPHPTPEAIDELYTAMHRADVFYELLLHFVDLEFEARRECMLIFSICLGYSKDNKFVTVDYLVSQPKTISLMLRTAEVALQQKGCQDIFLTVGNMIIECIKYEQLCRIILKDPQLWKFFEFAKLGNFEISTESLQILSAAFTAHPKLVSKEFFSNEINIIRFIKCINKLMAHGSYVTKRQSTKLLASLIVIRSNNALMNIYINSPENLKLIMTLMTDKSKNLQLEAFNVFKVMVANPRKSKPVFDILVKNRDKLLTYFKTFGLDSQDSTFLDEREFIVQEIDSLPRIISSTTEVSNNNASSSNVASITSPSSVMNNQSSILTHSTSPDSR
